Laboratory results from patent publication US20210363257A1 (Pieris, published 2021).

Columns and labels:
[1] = target: T1, human CD137 expressed on cells (human, UniProt Q07011 24-255); test: flow cytometry, Flp-In-CHO::huCD137 cells
T1 construct: whole, on cells; also called Flp-In-CHO::huCD137; NFκB-luc2/CD137 Jurkat cells
Procedure: (§1) The geometric means of the fluorescence intensity were used to calculate EC₅₀ values using nonlinear regression (shared bottom, SLOPE=1).
(§2) 5×10⁴ cells per well were incubated for 1 h in ice-cold PBS containing 5% fetal calf serum (PBS-FCS). A dilution series of the fusion proteins and control antibodies were added to the cells and incubated for 1 h on ice. Cells were washed twice with PBS and then incubated with a goat anti-hIgG Alexa647-labeled antibody for 30 min on ice. Cells were subsequently washed and analyzed using iQue Flow cytometer (Intellicyte Screener). Mean geometric fluorescent signals were plotted and fitted with Graphpad software using nonlinear regression (shared bottom, SLOPE=1).

[2] = target: T2, cyPD-L1-His (cynomolgus PD-L1 with a C-terminal polyhistidine tag) (cynomolgus); test: ELISA, cyPD-L1-His coated, detection anti-human IgG Fc-HRP
T2 construct: Bought
Procedure: (§3) Recombinant huPD-L1-His or cyPD-L1-His (human or cynomolgus PD-L1 with a C-terminal polyhistidine tag, R&D Systems or Sino Biologics) at the concentration of 1 μg/mL in PBS was coated overnight on microtiter plates at 4° C. After washing with PBS-0.05% T (PBS supplemented with 0.05% (v/v) Tween 20), the plates were blocked with 2% BSA (w/v) in PBS-0.1% T (PBS supplemented with 0.1% (v/v) Tween 20) for 1 h at room temperature. […] Bound molecules under study were detected by incubation with 1:5000 diluted anti-human IgG Fc-HRP (Jackson Laboratory) in PBS-0.1% T-2% BSA. After an additional wash step, fluorogenic HRP substrate (QuantaBlu, Thermo) was added to each well and the fluorescence intensity was detected using a fluorescence microplate reader.

[3] = target: T3, human PD-L1 expressed on cells (human, UniProt Q9NZQ7 19-290); test: flow cytometry, RKO tumor cells (PD-L1-positive)
T3 construct: whole, on cells; also called Flp-In-CHO::huPDL-1; RKO cells
Procedure: as §2
For flow cytometric analysis, RKO cells were incubated with fusion proteins and detected using a fluorescently labeled anti-human IgG antibody as described in Example 6.

[4] = target: T4, cynomolgus CD137 expressed on cells (cynomolgus, UniProt A9YYE7 24-254); test: flow cytometry, Flp-In-CHO::cynoCD137 cells
T4 construct: also called Flp-In-CHO::cynoCD137
Procedure: as §1, §2

[5] = target: T3, human PD-L1 expressed on cells; test: cell-based or functional assay
[6] = target: T5, huPD-L1-His (human PD-L1 with a C-terminal polyhistidine tag) (human, UniProt Q9NZQ7 19-239); test: dual-binding ELISA, huPD-L1-His coated, binder titrated, detection with biotinylated huCD137-His; PD-L1 capture, CD137 detection (simultaneous binding of both targets)
T5 construct: Bought; also called biotinylated huPD-L1-His
Procedure: (§4) Recombinant huPD-L1-His (R&D Systems) in PBS (1 μg/mL) was coated overnight on microtiter plates at 4° C. The plates were washed five times after each incubation step with 100 μL PBS-0.05% T. The plates were blocked with 2% BSA (w/v) in PBS-0.1% T for 1 h at room temperature and subsequently washed again. Different concentrations of tested fusion proteins were added to the wells and incubated for 1 h at room temperature, followed by a wash step. […] After washing, a 1:5000 dilution of ExtrAvidin-HRP (Sigma-Aldrich) in PBS-0.1% T-2% BSA was added to the wells and incubated for 1 h. After an additional wash step, fluorogenic HRP substrate (QuantaBlu, Thermo) was added to each well, and the fluorescence intensity was detected using a fluorescence microplate reader.

[7] = target: T6, huCD137-His (human CD137 with a C-terminal polyhistidine tag) (human, UniProt Q07011 24-186); test: ELISA, huCD137-His coated, detection anti-NGAL-HRP
T6 construct: Bought; also called huCD137-His-Bio
Procedure: as §3
The same ELISA setup was also employed to determine the binding potency of fusion proteins to CD137, where huCD137-His (human CD137 with C-terminal polyhistidine tag, R&D Systems) or cyCD137-Fc (cynomolgus CD137 C-terminally fused to Fc) was instead coated on a microtiter plate. The testing agents were similarly titrated and bound agents were detected via anti-NGAL-HRP.

[8] = target: T6, huCD137-His (human CD137 with a …); test: SPR (Biacore), binder captured by anti-human IgG Fc, huCD137-His in solution, 25 C, 1:1 model
Procedure: The binding kinetics and affinity of exemplary fusion proteins to huPD-L1-His or huCD137-His (human PD-L1 or human CD137 with a C-terminal polyhistidine tag, R&D Systems) were determined by surface plasmon resonance (SPR) using a Biacore 8K or a Biacore T200 (GE Healthcare).
The anti-human IgG Fc antibody (GE Healthcare) was immobilized on a CM5 sensor chip using standard amine chemistry: the carboxyl groups on the chip were activated using 1-ethyl-3-(3-dimethylaminopropyl)-carbodiimide (EDC) and N-hydroxysuccinimide (NHS). Subsequently, anti-human IgG Fc antibody solution (GE Healthcare) at a concentration of 25 μg/mL in 10 mM sodium acetate (pH 5.0) was applied at a flow rate of 5 μL/min until an immobilization level of 6000-10000 resonance units (RU) was achieved. Residual non-reacted NHS-esters were blocked by passing a solution of 1M ethanolamine across the surface. The reference channel was treated in an analogous manner. […] After each capture step, the needle was washed.
Double referencing was used and the 1:1 binding model was used to fit the raw data.

[9] = target: T7, cynomolgus PD-L1 expressed on cells (cynomolgus); test: flow cytometry, Flp-In-CHO::cynoPDL-1 cells
T7 construct: whole, on cells; also called Flp-In-CHO::cynoPDL-1
Procedure: as §1, §2

[10] = target: T5, huPD-L1-His (human PD-L1 with a …); test: dual-binding ELISA, huPD-L1-His coated, binder titrated, detection with biotinylated huCD137-His
Procedure: as §4

T3 sequence (Q9NZQ7 19-290): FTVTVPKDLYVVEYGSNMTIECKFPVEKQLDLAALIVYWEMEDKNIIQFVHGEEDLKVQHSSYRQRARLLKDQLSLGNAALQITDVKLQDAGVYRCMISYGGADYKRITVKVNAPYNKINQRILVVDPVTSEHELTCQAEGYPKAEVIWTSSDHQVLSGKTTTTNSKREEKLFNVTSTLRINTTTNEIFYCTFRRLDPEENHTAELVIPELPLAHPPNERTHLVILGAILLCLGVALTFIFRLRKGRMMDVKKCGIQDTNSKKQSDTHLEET
T6 sequence (Q07011 24-186 limits assumed): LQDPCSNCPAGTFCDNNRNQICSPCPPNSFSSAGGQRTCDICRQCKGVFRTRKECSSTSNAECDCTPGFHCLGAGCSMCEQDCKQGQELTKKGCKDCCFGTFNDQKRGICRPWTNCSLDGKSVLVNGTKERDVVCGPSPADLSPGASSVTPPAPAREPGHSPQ
T5 sequence (Q9NZQ7 19-239 limits assumed): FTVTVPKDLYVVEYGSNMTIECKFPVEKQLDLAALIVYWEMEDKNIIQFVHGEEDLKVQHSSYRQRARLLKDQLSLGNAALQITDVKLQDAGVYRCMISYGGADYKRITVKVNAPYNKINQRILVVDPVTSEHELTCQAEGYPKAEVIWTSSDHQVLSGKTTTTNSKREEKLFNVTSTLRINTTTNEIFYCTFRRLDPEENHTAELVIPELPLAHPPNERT
T4 sequence (A9YYE7 entry or part of it limits assumed): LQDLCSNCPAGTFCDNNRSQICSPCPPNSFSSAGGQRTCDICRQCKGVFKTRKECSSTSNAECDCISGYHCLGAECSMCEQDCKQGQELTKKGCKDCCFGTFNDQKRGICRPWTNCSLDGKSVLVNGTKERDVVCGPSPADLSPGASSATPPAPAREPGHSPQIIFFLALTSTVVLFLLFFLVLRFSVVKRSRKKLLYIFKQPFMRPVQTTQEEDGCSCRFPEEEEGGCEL
T1 sequence (Q07011 24-255): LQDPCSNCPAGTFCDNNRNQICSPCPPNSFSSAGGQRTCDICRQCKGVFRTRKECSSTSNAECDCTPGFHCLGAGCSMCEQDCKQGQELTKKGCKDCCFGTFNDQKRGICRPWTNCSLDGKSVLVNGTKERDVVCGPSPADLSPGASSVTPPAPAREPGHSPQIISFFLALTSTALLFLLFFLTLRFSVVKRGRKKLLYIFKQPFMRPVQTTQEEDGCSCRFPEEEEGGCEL

B1: fusion protein SEQ ID NOs: 90 and 87 (bispecific antibody, human IgG4 S228P, kappa, F234A L235A)
heavy: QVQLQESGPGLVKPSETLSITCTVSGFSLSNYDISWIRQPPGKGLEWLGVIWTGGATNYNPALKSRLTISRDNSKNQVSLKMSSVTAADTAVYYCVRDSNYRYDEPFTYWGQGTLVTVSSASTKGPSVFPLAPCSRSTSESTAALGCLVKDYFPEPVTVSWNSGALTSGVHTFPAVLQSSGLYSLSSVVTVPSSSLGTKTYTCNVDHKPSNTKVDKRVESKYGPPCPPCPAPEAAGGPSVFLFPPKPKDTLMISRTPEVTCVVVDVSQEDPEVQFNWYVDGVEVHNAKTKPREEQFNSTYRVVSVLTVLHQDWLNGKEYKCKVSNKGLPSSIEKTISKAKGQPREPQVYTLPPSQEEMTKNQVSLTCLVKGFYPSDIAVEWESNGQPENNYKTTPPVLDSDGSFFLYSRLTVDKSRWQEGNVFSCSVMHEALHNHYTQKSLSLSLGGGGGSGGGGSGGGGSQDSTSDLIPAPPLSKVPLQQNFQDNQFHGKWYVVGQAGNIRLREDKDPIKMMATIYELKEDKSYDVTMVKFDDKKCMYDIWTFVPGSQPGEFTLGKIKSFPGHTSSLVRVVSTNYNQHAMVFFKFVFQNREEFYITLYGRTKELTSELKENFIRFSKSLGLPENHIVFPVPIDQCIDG
light: EIVLTQSPDTLSVTPKEKVTLTCRASQSIGTNIHWFQQKPGQSPKLLIKYASESISGVPSRFSGSGSGTDFTLTINSVEAEDAATYYCQQSNSWPYTFGQGTKLEIKRTVAAPSVFIFPPSDEQLKSGTASVVCLLNNFYPREAKVQWKVDNALQSGNSQESVTEQDSKDSTYSLSSTLTLSKADYEKHKVYACEVTHQGLSSPVTKSFNRGEC
notes: Bivalent to CD137
[1]
  EC50: 3.74 nM
[2]
  EC50: 0.13 nM
[3]
  EC50: 0.51 nM
[4]
  EC50: 51.4 nM
[5]
  EC50 [nM] (PD-1/PD-L1 blockade bioassay, NFAT-RE-mediated luminescence): 0.49 nM
[6]
  EC50: 0.58 nM
[7]
  EC50: 0.28 nM
[8]
  Kd: 6.48 nM
  koff: 0.000255 s⁻¹
  kon: 39300 M⁻¹ s⁻¹
[9]
  EC50: 4.48 nM

B2: fusion protein SEQ ID NOs: 86 and 91 (bispecific antibody, human IgG4 S228P, kappa, F234A L235A)
heavy: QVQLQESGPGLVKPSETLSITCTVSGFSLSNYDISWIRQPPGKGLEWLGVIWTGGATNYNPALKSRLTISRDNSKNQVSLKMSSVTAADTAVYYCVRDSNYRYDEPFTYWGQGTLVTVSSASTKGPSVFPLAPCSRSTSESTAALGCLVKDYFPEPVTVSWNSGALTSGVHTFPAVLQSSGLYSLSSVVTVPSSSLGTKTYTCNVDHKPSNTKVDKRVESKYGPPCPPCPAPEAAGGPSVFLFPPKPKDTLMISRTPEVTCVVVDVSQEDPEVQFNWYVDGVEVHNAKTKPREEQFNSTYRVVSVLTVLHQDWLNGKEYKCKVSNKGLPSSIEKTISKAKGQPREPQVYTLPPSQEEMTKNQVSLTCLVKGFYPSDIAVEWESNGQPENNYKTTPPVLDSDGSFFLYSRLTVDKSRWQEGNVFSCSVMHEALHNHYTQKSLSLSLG
light: EIVLTQSPDTLSVTPKEKVTLTCRASQSIGTNIHWFQQKPGQSPKLLIKYASESISGVPSRFSGSGSGTDFTLTINSVEAEDAATYYCQQSNSWPYTFGQGTKLEIKRTVAAPSVFIFPPSDEQLKSGTASVVCLLNNFYPREAKVQWKVDNALQSGNSQESVTEQDSKDSTYSLSSTLTLSKADYEKHKVYACEVTHQGLSSPVTKSFNRGECGGGGSGGGGSGGGGSQDSTSDLIPAPPLSKVPLQQNFQDNQFHGKWYVVGQAGNIRLREDKDPIKMMATIYELKEDKSYDVTMVKFDDKKCMYDIWTFVPGSQPGEFTLGKIKSFPGHTSSLVRVVSTNYNQHAMVFFKFVFQNREEFYITLYGRTKELTSELKENFIRFSKSLGLPENHIVFPVPIDQCIDG
notes: Antibody-lipocalin mutein fusion, IgG4 S228P backbone; Bivalent to CD137
[1]
  EC50: 6.48 nM
[2]
  EC50: 0.18 nM
[3]
  EC50: 0.45 nM
[4]
  EC50: 39.1 nM
[7]
  EC50: 0.57 nM
[8]
  Kd: 5.11 nM
  koff: 0.000175 s⁻¹
  kon: 34200 M⁻¹ s⁻¹
[9]
  EC50: 1.41 nM
[10]
  EC50: 0.59 nM
